# From article PMC10312692 (bioRxiv, 2023)
# Target: the molecule itself
# Assay: SEC
row,Protein,binding result
1,DISC1 598-854 C680S/C682S/C684S/C698S/C762S/C782S/C844S (domain or fragment) GNHFFTAKDLTEEIRSLTSEREGLEGLLSKLLVLSSRNVKKLGSVKEDYNRLRREVEHQETAYETSVKENTMKYMETLKNKLSSSKSPLLGKVWEADLEASRLLIQSLQLQEARGSLSVEDERQMDDLEGAAPPIPPRLHSEDKRKTPLKVLEEFKTHLIPSLHSAGGEQKEESYILSAELGEKSEDIGKKLLYLEDQLHTAIHSHDEDLIQSLRRELQMVKETLQAMILQLQPAKEAGEREAAASSMTAGVHEAQA,binds
2,DISC1 598-854 C698S/C762S/C782S/C844S (domain or fragment) GNHFFTAKDLTEEIRSLTSEREGLEGLLSKLLVLSSRNVKKLGSVKEDYNRLRREVEHQETAYETSVKENTMKYMETLKNKLCSCKCPLLGKVWEADLEASRLLIQSLQLQEARGSLSVEDERQMDDLEGAAPPIPPRLHSEDKRKTPLKVLEEFKTHLIPSLHSAGGEQKEESYILSAELGEKSEDIGKKLLYLEDQLHTAIHSHDEDLIQSLRRELQMVKETLQAMILQLQPAKEAGEREAAASSMTAGVHEAQA,binds
3,DISC1 598-854 C680S/C698S/C762S/C782S/C844S (domain or fragment) GNHFFTAKDLTEEIRSLTSEREGLEGLLSKLLVLSSRNVKKLGSVKEDYNRLRREVEHQETAYETSVKENTMKYMETLKNKLSSCKCPLLGKVWEADLEASRLLIQSLQLQEARGSLSVEDERQMDDLEGAAPPIPPRLHSEDKRKTPLKVLEEFKTHLIPSLHSAGGEQKEESYILSAELGEKSEDIGKKLLYLEDQLHTAIHSHDEDLIQSLRRELQMVKETLQAMILQLQPAKEAGEREAAASSMTAGVHEAQA,binds
4,DISC1 598-854 C682S/C698S/C762S/C782S/C844S (domain or fragment) GNHFFTAKDLTEEIRSLTSEREGLEGLLSKLLVLSSRNVKKLGSVKEDYNRLRREVEHQETAYETSVKENTMKYMETLKNKLCSSKCPLLGKVWEADLEASRLLIQSLQLQEARGSLSVEDERQMDDLEGAAPPIPPRLHSEDKRKTPLKVLEEFKTHLIPSLHSAGGEQKEESYILSAELGEKSEDIGKKLLYLEDQLHTAIHSHDEDLIQSLRRELQMVKETLQAMILQLQPAKEAGEREAAASSMTAGVHEAQA,binds
5,DISC1 598-854 C684S/C698S/C762S/C782S/C844S (domain or fragment) GNHFFTAKDLTEEIRSLTSEREGLEGLLSKLLVLSSRNVKKLGSVKEDYNRLRREVEHQETAYETSVKENTMKYMETLKNKLCSCKSPLLGKVWEADLEASRLLIQSLQLQEARGSLSVEDERQMDDLEGAAPPIPPRLHSEDKRKTPLKVLEEFKTHLIPSLHSAGGEQKEESYILSAELGEKSEDIGKKLLYLEDQLHTAIHSHDEDLIQSLRRELQMVKETLQAMILQLQPAKEAGEREAAASSMTAGVHEAQA,binds
6,DISC1 598-854 C680S/C682S/C698S/C762S/C782S/C844S (domain or fragment) GNHFFTAKDLTEEIRSLTSEREGLEGLLSKLLVLSSRNVKKLGSVKEDYNRLRREVEHQETAYETSVKENTMKYMETLKNKLSSSKCPLLGKVWEADLEASRLLIQSLQLQEARGSLSVEDERQMDDLEGAAPPIPPRLHSEDKRKTPLKVLEEFKTHLIPSLHSAGGEQKEESYILSAELGEKSEDIGKKLLYLEDQLHTAIHSHDEDLIQSLRRELQMVKETLQAMILQLQPAKEAGEREAAASSMTAGVHEAQA,binds
7,DISC1 598-854 C680S/C684S/C698S/C762S/C782S/C844S (domain or fragment) GNHFFTAKDLTEEIRSLTSEREGLEGLLSKLLVLSSRNVKKLGSVKEDYNRLRREVEHQETAYETSVKENTMKYMETLKNKLSSCKSPLLGKVWEADLEASRLLIQSLQLQEARGSLSVEDERQMDDLEGAAPPIPPRLHSEDKRKTPLKVLEEFKTHLIPSLHSAGGEQKEESYILSAELGEKSEDIGKKLLYLEDQLHTAIHSHDEDLIQSLRRELQMVKETLQAMILQLQPAKEAGEREAAASSMTAGVHEAQA,binds
8,DISC1 598-854 C682S/C684S/C698S/C762S/C782S/C844S (domain or fragment) GNHFFTAKDLTEEIRSLTSEREGLEGLLSKLLVLSSRNVKKLGSVKEDYNRLRREVEHQETAYETSVKENTMKYMETLKNKLCSSKSPLLGKVWEADLEASRLLIQSLQLQEARGSLSVEDERQMDDLEGAAPPIPPRLHSEDKRKTPLKVLEEFKTHLIPSLHSAGGEQKEESYILSAELGEKSEDIGKKLLYLEDQLHTAIHSHDEDLIQSLRRELQMVKETLQAMILQLQPAKEAGEREAAASSMTAGVHEAQA,binds
